Measured values as given in publication PMC4742118, “The ON:OFF switch, σ1R-HINT1 protein, controls GPCR-NMDA receptor cross-regulation: Implications in neurological disorders” (Oncotarget, 2015).

B1: recombinant HINT1 protein (natural protein, mouse, UniProt P70349 1-126, looked up)
chain: MADEIAKAQVAQPGGDTIFGKIIRKEIPAKIIFEDDRCLAFHDISPQAPTHFLVIPKKHISQISVADDDDESLLGHLMIVGKKCAADLGLKRGYRMVVNEGADGGQSVYHIHLHVLGGRQMNWPPG
notes: HINT1, coding region of NM_008248, amplified from mouse brain RNA; also called PKCI/HINT1; source: E. coli BL21 (KRX), purified (GSTrap FF; when necessary cleaved with ProTEV and electroeluted)
B2: GST-MOR (domain or fragment, mus musculus, UniProt P42866 286-398, looked up)
chain: VAVFIVCWTPIHIYVIIKALITIPETTFQTVSWHFCIALGYTNSCLNPVLYAFLDENFKRCFREFCIPTSSTIEQQNSARIRQNTREHPSTANTVDRTNHQLENLEAETAPLP
notes: C-terminal region of mus musculus MOR1 (AB047546), residues 286-398; the methods speak of MOR Ct; also called GST-tagged MOR; MOR Ct; source: E. coli BL21 (KRX), purified (GSTrap FF); not shown: GST, N-terminal, kept

What was measured:
Conditions in all cases: both partners purified
GST-σ1R = biological target: T1, GST-σ1R (murine, UniProt O55242 1-223); assay: pull-down; HINT1 protomer 200 nM with GST fusion protein 100 nM in 50 mM Tris-HCl pH 7.4, 2.5 mM CaCl2, 0.2% CHAPS, 30 min RT; captured on glutathione Sepharose 4B; Western blot
T1 construct: murine full-length (1-223) σ1R, GenBank AF004927, cloned downstream of GST and a TEV protease site; also called GST-tagged σ1 receptor; source: E. coli BL21 (KRX), purified (GSTrap FF); not shown: GST, N-terminal, kept

[1] = biological target: B1; assay: pull-down; displacement assay: HINT1 200 nM preincubated with agarose-NR1 or agarose-MOR in 50 mM Tris-HCl pH 7.5, 2.5 mM CaCl2, 0.2% CHAPS at RT; free HINT1 removed; σ1R added (100 nM, 300 nM or 1 uM on NR1; 300 nM on MOR); Western blot of bound HINT1 and σ1R
recombinant σ1R = biological target: T2, recombinant σ1R (murine, UniProt O55242 1-223); assay: pull-down; bait (GST-NR1 C0-C1-C2 or GST-MOR) covalently attached to NHS-activated Sepharose; σ1R 100 nM in 50 mM Tris-HCl pH 7.4, 0.2% CHAPS, 30 min RT; 0 mM CaCl2; Western blot
T2 construct: murine full-length (1-223) σ1R, GenBank AF004927; Used as prey; also called sigma 1 receptor; source: E. coli BL21 (KRX), purified (GSTrap FF; when necessary cleaved with ProTEV and electroeluted)
T2 sequence (O55242 whole entry): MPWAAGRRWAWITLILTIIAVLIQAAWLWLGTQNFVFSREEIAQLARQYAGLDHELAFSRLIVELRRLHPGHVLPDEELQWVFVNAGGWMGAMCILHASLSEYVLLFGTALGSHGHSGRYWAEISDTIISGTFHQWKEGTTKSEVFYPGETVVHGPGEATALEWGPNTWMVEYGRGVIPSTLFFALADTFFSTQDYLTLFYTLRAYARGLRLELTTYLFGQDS

T1 sequence (O55242 whole entry, the tested form may be a part): as the sequence (O55242 whole entry) above

Row | binding result (GST-σ1R) | binding result [1] | binding result (recombinant σ1R) | Binder
1 | binds |  |  | B1
2 |  | binds | binds | B2
